# Measurements: patent publication US6638518B1 (priority 1999, dated 2003)
# Where two headings read alike, the source gives them in different places.
# B1: FAP-A: Fibronectin attachment protein produced by M. avium (SEQ ID NO:5, GenBank AAB50543), recombinant fusion protein (protein, listed as Mycobacterium avium)
# chain: MDQVEATSTRRKGLWTTLAITTVSGASAVVIALPETSHADPEVPTPVPPSTATTPHPRRRRIPGQPADNAQAGAPAPAPNGQQRPPRRRRMIPTRAPPPAGAPPNGAPPAAPNGAPPPPVDPNAPPPPPADPNAGRIPNSYVLPAGWVESDASHLDYGSALLSKVTGPPPMPDQPPPVANDTRIVMGRVDQKLYASAEANNAKAAVGLGSDMGEFFMPYPGTRINQDSTPLNGANGSTGSASYYEVKFSDASKPNGQIWTGVIGSANAGNRQRWFVVWLGTSNDPVDKVAAKALAESIQAWTPPPAPPAAPGGPGAPAPGAPGAPAPGAPAAPGVTAPAAPAPAAPGAPAAPGAPAPEPGQAPAVEVSPTPTPTPQQTLSA
# modifications: recombinant fusion partner
# Key:
# [1] = system: BCG attachment to fibronectin; type: binding, M. bovis BCG; conditions: recombinant FAP 1 μM or peptide, 90 minutes, 37° C.; FIG. 4
# [2] = molecular target: T1, human fibronectin (Homo sapiens, UniProt P02751); assay: Attachment of FAP to fibronectin (biotinylated fusion proteins on coated wells); type: binding
# T1 construct: purchased Collaborative Biomedical Products, Bedford, Mass
# Method: Ninety-six-well Immulon II plates (Dynatech, Chantilly, Va.) were coated with 1 μg of human fibronectin (Collaborative Biomedical Products, Bedford, Mass.) or bovine serum albumin (BSA) at 37° C. overnight. Recombinant FAP-B, FAP-A, and β-galactosidase fusion proteins were produced in the pTrcHis vector and purified as described for FAP-B, were biotinylated with NHS-LC-Biotin (Pierce, Rockford, Ill.). Biotinylated FAP-B, FAP-A and β-galactasidase fusion proteins (0.5 μg and 2 μg) were added to wells coated with fibronectin or BSA and incubated at 25° C. for 1 hour. The bound fusion proteins were detected with streptavidin-HRP (1:10,000 dilution; Pierce) and o-phenylenediamine dihydrochloride (Sigma) substrate.
# T1 sequence (P02751 32-2477): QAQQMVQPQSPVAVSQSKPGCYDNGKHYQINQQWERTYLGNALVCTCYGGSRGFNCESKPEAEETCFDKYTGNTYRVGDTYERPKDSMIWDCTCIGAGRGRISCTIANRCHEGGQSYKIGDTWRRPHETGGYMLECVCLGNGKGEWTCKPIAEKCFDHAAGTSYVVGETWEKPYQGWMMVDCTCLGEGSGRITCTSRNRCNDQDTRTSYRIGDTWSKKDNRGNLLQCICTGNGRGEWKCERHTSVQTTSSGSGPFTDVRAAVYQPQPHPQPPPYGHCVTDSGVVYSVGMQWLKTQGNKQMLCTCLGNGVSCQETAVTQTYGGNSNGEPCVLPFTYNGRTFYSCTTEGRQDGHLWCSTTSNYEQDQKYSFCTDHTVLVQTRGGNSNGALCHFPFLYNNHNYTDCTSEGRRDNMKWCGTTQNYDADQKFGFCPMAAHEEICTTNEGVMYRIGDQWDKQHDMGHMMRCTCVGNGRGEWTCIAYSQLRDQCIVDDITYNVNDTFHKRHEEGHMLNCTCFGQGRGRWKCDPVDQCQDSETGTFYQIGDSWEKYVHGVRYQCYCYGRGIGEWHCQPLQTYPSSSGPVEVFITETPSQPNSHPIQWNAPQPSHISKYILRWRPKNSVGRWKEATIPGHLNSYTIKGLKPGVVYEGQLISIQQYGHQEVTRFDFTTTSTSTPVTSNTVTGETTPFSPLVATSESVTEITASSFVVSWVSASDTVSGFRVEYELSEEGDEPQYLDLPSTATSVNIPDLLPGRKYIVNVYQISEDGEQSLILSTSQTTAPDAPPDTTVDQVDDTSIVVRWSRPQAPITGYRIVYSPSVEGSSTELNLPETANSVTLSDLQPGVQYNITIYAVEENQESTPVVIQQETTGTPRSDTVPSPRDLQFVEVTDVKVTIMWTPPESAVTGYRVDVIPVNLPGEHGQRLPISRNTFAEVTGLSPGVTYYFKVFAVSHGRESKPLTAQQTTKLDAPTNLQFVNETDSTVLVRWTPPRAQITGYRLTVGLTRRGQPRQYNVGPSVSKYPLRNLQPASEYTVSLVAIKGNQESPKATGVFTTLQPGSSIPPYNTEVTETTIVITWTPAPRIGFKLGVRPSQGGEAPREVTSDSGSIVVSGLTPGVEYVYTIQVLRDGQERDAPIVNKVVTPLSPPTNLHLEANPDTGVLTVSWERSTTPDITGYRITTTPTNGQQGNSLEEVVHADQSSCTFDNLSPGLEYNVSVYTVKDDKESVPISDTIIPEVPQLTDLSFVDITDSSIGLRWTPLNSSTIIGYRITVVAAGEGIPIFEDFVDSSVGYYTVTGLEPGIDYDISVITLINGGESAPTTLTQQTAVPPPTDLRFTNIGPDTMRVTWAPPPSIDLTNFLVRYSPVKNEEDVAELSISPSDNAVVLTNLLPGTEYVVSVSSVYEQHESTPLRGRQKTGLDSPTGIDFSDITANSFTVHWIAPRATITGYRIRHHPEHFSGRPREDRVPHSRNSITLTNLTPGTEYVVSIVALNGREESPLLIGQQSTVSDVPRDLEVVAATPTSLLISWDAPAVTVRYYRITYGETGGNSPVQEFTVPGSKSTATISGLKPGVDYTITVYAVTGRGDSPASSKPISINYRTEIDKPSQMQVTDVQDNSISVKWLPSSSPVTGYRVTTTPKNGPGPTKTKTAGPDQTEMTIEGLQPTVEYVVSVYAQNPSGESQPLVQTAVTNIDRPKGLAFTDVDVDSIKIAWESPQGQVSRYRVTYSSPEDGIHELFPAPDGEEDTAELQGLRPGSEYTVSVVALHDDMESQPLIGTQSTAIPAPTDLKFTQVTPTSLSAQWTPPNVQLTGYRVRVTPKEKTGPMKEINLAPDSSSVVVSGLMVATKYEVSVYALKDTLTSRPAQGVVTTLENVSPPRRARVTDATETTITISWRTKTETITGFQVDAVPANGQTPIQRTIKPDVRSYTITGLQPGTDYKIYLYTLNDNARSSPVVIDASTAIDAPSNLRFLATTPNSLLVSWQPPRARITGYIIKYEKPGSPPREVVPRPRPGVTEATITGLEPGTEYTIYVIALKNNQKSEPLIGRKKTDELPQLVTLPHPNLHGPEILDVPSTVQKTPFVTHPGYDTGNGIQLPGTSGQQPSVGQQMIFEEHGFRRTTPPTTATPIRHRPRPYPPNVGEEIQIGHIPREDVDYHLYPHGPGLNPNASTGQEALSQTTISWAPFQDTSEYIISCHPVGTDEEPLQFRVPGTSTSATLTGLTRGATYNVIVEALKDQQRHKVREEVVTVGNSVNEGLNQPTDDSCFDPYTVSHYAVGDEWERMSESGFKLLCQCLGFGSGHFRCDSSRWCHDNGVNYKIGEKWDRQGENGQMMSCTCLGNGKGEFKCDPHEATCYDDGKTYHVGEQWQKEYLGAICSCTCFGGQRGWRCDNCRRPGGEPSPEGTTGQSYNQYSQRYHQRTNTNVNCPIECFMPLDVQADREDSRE
Molecule,inhibition of BCG attachment to fibronectin [1],binding to fibronectin-coated wells [2],"binding to fibronectin-coated wells ([2]; biotinylated fusion proteins 0.5 μg and 2 μg, 25° C., 1 hour, FIG. 2)"
"FAP-A269-292: Synthesized peptide of amino acids 269-292 of FAP-A, a conserved fibronectin binding region (GNRQRWFVVWLGTSNDPVDKVAAK)",inhibit BCG attachment to fibronectin in an equivalent manner,,
β-galactosidase: Control recombinant β-galactosidase fusion protein produced in the pTrcHis vector,,did not bind to fibronectin,
B1,inhibit BCG attachment to fibronectin in an equivalent manner,,bound to wells coated with fibronectin
